Values quoted from earlier work as cited in patent US20200129630A1, “METHODS FOR TREATING CANCER” (BicycleRD Limited, priority 2018, published 2020).
Like-named read-outs stand apart in the source and are kept apart here.

Columns and labels:
[1] = animals, 58 to 228 mg/m^2 (0.85 and […]^2 DM1) weekly
[2] = not given; remark: listed apart in the source

B1: Lorvotuzumab mertansine: anti-CD56 ADC with DM1, SPP cleavable linker (conjugate, chains of the INN, looked up)
VH: QVQLVESGGGVVQPGRSLRLSCAASGFTFSSFGMHWVRQAPGKGLEWVAYISSGSFTIYYADSVKGRFTISRDNSKNTLYLQMNSLRAEDTAVYYCARMRKGYAMDYWGQGTLVTVSS
VL: DVVMTQSPLSLPVTLGQPASISCRSSQIIIHSDGNTYLEWFQQRPGQSPRRLIYKVSNRFSGVPDRFSGSGSGTDFTLKISRVEAEDVGVYYCFQGSHVPHTFGQGTKVEIK
modifications: mertansine (DM1) via SPP linker
3 consecutive days every 3 weeks
  Recommended Phase 2 dose (RP2D): Recommended Phase 2 dose (RP2D) was 60 mg/m^2
All patients
  neurosensory AEs (all grades): 17%
In vivo
  Grade 3 or 4 TEAEs hyponatremia and dyspnea (each): (each 8.2%)[38]. Lorvotuzumab mertansine is currently
  t½: approximately 40 hours

B2: Cantuzumab mertansine: Anti-CanAg ADC with DM1, SPP cleavable linker (conjugate, chains of the INN, looked up)
VH: QVQLVQSGAEVKKPGETVKISCKASDYTFTYYGMNWVKQAPGQGLKWMGWIDTTTGEPTYAQKFQGRIAFSLETSASTAYLQIKSLKSEDTATYFCARRGPYNWYFDVWGQGTTVTVSS
VL: DIVMTQSPLSVPVTPGEPVSISCRSSKSLLHSNGNTYLYWFLQRPGQSPQLLIYRMSNLVSGVPDRFSGSGSGTAFTLRISRVEAEDVGVYYCLQHLEYPFTFGPGTKLELK
modifications: mertansine (DM1) via SPP linker
[1]
  axonal degeneration: mild axonal degeneration
[2]; IV three-times a week
  DLT (Grade 3): transaminitis. Hepatic, hematological, and neurosensory
  MTD: three-times a week [37], The MTD was 45 mg/m^2
[2]; every 3 weeks
  RP2D: from this trial was 235 mg/m^2 every 3 weeks (~3.9 mg/m^2
[2]; in vivo
  t1/2: 40 h
[2]; weekly administration
  MTD: 115 mg/m^2/week (~1.9 mg/m^2/week DM1) with DLTs
